Tests used:
[1] = in vivo; cited from earlier work
[2] = delivered together with deoxycholate; cited from earlier work
salmonids = conditions: in vivo; cited from earlier work
rainbow trout = assay: Growth enhancement, intraperitoneal bST; assay type: in vivo, Oncorhynchus mykiss; conditions: IP 20 μg bST/g live body weight weekly for 6 weeks
Experimental: Intraperitoneal (IP) administration dose per fish weekly was 20 μg bST/g live body weight for 6 weeks.

proteolytic enzyme = assay: In vitro proteolytic enzyme inhibition (casein digestion by intestinal enzyme extract); assay type: biochemical, rainbow trout; conditions: increasing level of inhibitor inclusion; FIGS. 5-12
Experimental: • 1. Centrifuge Sorvall model • 2. Bench-top blender • 3. Dissecting material (scissors) • 4. Centrifuge bottle • 5. Disposable cuvettes for spectrophotometer • 6. Microcentrifuge tubes 1.5 ml • 7. Spectrophotometer • 8. Vortexer • 9. Microplates reader from Biorad • 10. 50 mM Tris-HCl pH=7.5 • 11. Commassie blue staining solution • 12 BSA (1 mg\ml) standard solution • 13 TCA 20% • 14. Rainbow trouts pancreatic and duodenal tissues • 15.0.5% casein in 50 mM Tris-HCl pH=9 • 16.50 mM Tris-HCl+CaCl2 10 mM pH=7.5 Enzyme Extract • 1. Rainbow trout were weighed and sacrificed. • 2. Dissection was performed to remove the proximal small intestine from the fish. • 3. After weighing, the tissues were homogenised in 50 mM Tris-HCl ph=7.5 (1:10 w\v). • 4. Centrifuge at 16000×g for 30 min at 4° C. • 5. Keep the supernatant. Aliquot and store them at −20 C for further use. • 6. Perform Commassie assay to measure the amount of protein present in the enzyme extract. Commassie Blue Stain Protocol • 1. Weigh 160 mg of BSA in 10 ml of […] Tris-HCl pH=7.5. • 2. […] Read at 655 nm with the microplate reader from Biorad. […] Centrifuge at 12000×g for 5 min and read at 280 nm. […] Centrifuge at 12000×g for 5 min and read at 280 nm. […] Centrifuge at 12000×g for 5 min and read at 280 nm. […] Centrifuge at 12000×g for 5 min and read at 280 nm. […] Centrifuge at 12000×g for 5 min and read at 280 nm. […]

horseradish peroxidase
time to transport to the circulation after oral administration [1]: ≤ 1 h

recombinant human GH: recombinant human growth hormone
enhancement of oral absorption [2]: ≤ 1000 fold

B1: bovine GH: bovine growth hormone (protein, UniProt P01246 27-217, looked up)
Somatotropin: AFPAMSLSGLFANAVLRAQHLHQLAADTFKEFERTYIPEGQRYSIQNTQVAFCFSETIPAPTGKNEAQQKSDLELLRISLLLIQSWLGPLQFLSRVFTNSLVFGTSDRVYEKLKDLEEGILALMRELEDGTPRAGQILKQTYDKFDTNMRSDDALLKNYGLLSCFRKDLHKTETYLRVMKCRRFGEASCAF
increase in growth rate (salmonids): two to three-fold

B2: recombinant bST: recombinant bovine somatotropin (Monsanto Co.) (protein, UniProt P01246 27-217, looked up)
Somatotropin: B1 Somatotropin
body weight gain (rainbow trout): significantly induces increased body weight gain

B3: lyophylized ovalbumin: individual protease inhibitor component of the Oralject cocktail (protein, UniProt P01012 2-386, looked up)
Ovalbumin: GSIGAASMEFCFDVFKELKVHHANENIFYCPIAIMSALAMVYLGAKDSTRTQINKVVRFDKLPGFGDSIEAQCGTSVNVHSSLRDILNQITKPNDVYSFSLASRLYAEERYPILPEYLQCVKELYRGGLEPINFQTAADQARELINSWVESQTNGIIRNVLQPSSVDSQTAMVLVNAIVFKGLWEKAFKDEDTQAMPFRVTEQESKPVQMMYQIGLFRVASMASEKMKILELPFASGTMSMLVLLPDEVSGLEQLESIINFEKLTEWTSSNVMEERKIKVYLPRMKMEEKYNLTSVLMAMGITDVFSSSANLSGISSAESLKISQAVHAAHAEINEAGREVVGSAEAGVDAASVSEEFRADHPFLFCIKHIATNAVLFFGRCVSP
in vitro proteolytic enzyme inhibition (proteolytic enzyme): affect to differing degrees

B4: spray-dried ovalbumin: individual protease inhibitor component of the Oralject cocktail (protein, UniProt P01012 2-386, looked up)
Ovalbumin: B3 Ovalbumin
in vitro proteolytic enzyme inhibition (proteolytic enzyme): affect to differing degrees

— US20050175724A1, “Composition for modulating a physiological reaction or inducing an immune response” (priority 2002, published 2005)
